Measurements published in publication PMC3268225 (Biochemical Journal, 2011).
Values belong to the binder of their own block, whether it stands above or below them.

What was measured:
His6–Zb–eEF2K[48–336] = target: T1, His6–Zb–eEF2K[48–336] (human, UniProt O00418 48-336); test: pull-down
T1 sequence: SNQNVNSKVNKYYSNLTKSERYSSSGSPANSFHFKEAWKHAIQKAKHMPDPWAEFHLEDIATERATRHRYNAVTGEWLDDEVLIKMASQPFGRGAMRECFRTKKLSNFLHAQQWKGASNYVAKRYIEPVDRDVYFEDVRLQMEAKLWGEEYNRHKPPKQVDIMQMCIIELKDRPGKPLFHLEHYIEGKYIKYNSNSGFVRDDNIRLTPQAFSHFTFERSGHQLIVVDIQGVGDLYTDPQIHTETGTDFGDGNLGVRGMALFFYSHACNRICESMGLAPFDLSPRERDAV

eEF2K[48–336] = target: T2, eEF2K[48–336] (human, UniProt O00418 48-336); test: SEC
T2 sequence: T1 sequence

GST–eEF2K[1–402]–His6 = target: T3, GST–eEF2K[1–402]–His6 (human, UniProt O00418 1-402); test: ELISA
T3 sequence: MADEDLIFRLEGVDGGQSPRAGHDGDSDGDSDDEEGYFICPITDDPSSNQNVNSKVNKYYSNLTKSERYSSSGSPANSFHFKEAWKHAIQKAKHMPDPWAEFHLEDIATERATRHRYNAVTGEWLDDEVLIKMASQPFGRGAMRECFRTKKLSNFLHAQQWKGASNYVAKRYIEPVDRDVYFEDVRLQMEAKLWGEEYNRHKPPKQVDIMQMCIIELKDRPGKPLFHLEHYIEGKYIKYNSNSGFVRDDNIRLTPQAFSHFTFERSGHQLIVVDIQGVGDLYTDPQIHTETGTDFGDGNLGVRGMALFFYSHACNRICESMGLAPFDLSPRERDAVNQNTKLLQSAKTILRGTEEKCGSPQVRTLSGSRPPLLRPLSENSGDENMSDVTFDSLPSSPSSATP

- binding result (His6–Zb–eEF2K[48–336]): binds
B1: His6–eEF2K[490–725] (domain or fragment)
chain: NSSRLHLPRASAVALEVQRLNALDLEKKIGKSILGKVHLAMVRYHEGGRFCEKGEEWDQESAVFHLEHAANLGELEAIVGLGLMYSQLPHHILADVSLKETEENKTKGFDYLLKAAEAGDRQSMILVARAFDSGQNLSPDRCQDWLEALHWYNTALEMTDCDEGGEYDGMQDEPRYMMLAREAEMLFTGGYGLEKDPQRSGDLYTQAAEAAMEAMKGRLANQYYQKAEEAWAQMEE

- binding result (eEF2K[48–336]): binds
B2: eEF2K[490–725] (domain or fragment)
chain: B1 chain

- binding result (GST–eEF2K[1–402]–His6): binds
B3: GST–eEF2K[478–725] (domain or fragment)
chain: SGRVCVEKWNLLNSSRLHLPRASAVALEVQRLNALDLEKKIGKSILGKVHLAMVRYHEGGRFCEKGEEWDQESAVFHLEHAANLGELEAIVGLGLMYSQLPHHILADVSLKETEENKTKGFDYLLKAAEAGDRQSMILVARAFDSGQNLSPDRCQDWLEALHWYNTALEMTDCDEGGEYDGMQDEPRYMMLAREAEMLFTGGYGLEKDPQRSGDLYTQAAEAAMEAMKGRLANQYYQKAEEAWAQMEE
